Columns and labels:
[1] = biological target: T1, mTREX1 truncated (nuclease domain) (Mus musculus, UniProt Q91XB0 1-242); assay: fluorescence anisotropy; 20 mM EDTA; not saturated, extrapolated (legend prints uM, text nM); FA: 5 nM FAM nucleic acid, 120 mM NaCl, 20 mM Tris pH 7.0, 20 mM EDTA, room temperature, 30 min; RNase T EMSA: 120 mM NaCl, 50 mM EDTA, 20 mM buffer (truncated); details: protein: recombinant; tags: His-tag; chain copies: 2; label: 5'-FAM; single strand
T1 sequence: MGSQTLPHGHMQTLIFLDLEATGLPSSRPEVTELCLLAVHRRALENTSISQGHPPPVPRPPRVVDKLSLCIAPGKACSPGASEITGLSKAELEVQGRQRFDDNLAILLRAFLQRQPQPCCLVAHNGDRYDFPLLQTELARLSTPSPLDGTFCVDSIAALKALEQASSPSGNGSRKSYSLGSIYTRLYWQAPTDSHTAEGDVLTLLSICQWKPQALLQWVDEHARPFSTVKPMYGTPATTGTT

[2] = biological target: T1, mTREX1 truncated (nuclease domain); assay: fluorescence anisotropy; 20 mM EDTA; extrapolated; legend prints uM, but nM fits the stated ~500-fold drop vs ssDNA20; FA: 5 nM FAM nucleic acid, 120 mM NaCl, 20 mM Tris pH 7.0, 20 mM EDTA, room temperature, 30 min; RNase T EMSA: 120 mM NaCl, 50 mM EDTA, 20 mM buffer (truncated); details: protein: recombinant; tags: His-tag; chain copies: 2; label: 5'-FAM; single strand
[3] = biological target: T1, mTREX1 truncated (nuclease domain); assay: fluorescence anisotropy; 20 mM EDTA, no Mg2+; FA: 5 nM FAM nucleic acid, 120 mM NaCl, 20 mM Tris pH 7.0, 20 mM EDTA, room temperature, 30 min; RNase T EMSA: 120 mM NaCl, 50 mM EDTA, 20 mM buffer (truncated); details: protein: recombinant, tags: His-tag, chain copies: 2
[4] = biological target: T1, mTREX1 truncated (nuclease domain); assay: fluorescence anisotropy; 20 mM EDTA; Kd stated between those of dsDNA (139.4 nM) and DNA/RNA hybrid (102.0 nM); FA: 5 nM FAM nucleic acid, 120 mM NaCl, 20 mM Tris pH 7.0, 20 mM EDTA, room temperature, 30 min; RNase T EMSA: 120 mM NaCl, 50 mM EDTA, 20 mM buffer (truncated); details: protein: recombinant; tags: His-tag; chain copies: 2; label: 5'-FAM on strand 1; blunt

With ACUGGACAAAUACUCCGAGG (ssRNA) [ssRNA20] the Kd [1] was roughly 59 µM.

ACTGGACAAATACTCCGAGG (mixed, 3'-terminal A18 G19 G20 are ribonucleotides; positions 1-17 DNA) [ssDNA17+RNA3 (ss17D3R)] was tested, and the Kd [2] was roughly 39.6 µM.

Binder ACTGGACAAATACTCCGAGG (ssDNA) [ssDNA20] has a Kd ([3]; label: 5'-FAM, single strand) of 77.7 ± 6 nM.

B1: dsDNA20 (dsDNA)
DNA 1: ACTGGACAAATACTCCGAGG
DNA 2: CCTCGGAGTATTTGTCCAGT
In the case of B1, the Kd ([3]; label: 5'-FAM on strand 1, blunt) is reported as 139 ± 17.2 nM.

B2: DNA/RNA hybrid 20 bp (DNA:RNA)
DNA: ACTGGACAAATACTCCGAGG
RNA: CCUCGGAGUAUUUGUCCAGU
For B2, the Kd ([3]; blunt) was 102 ± 8 nM.

B3: dsDNA19+RNA1 (ss19D1R/ssDNA20) (mixed)
DNA 1: ACTGGACAAATACTCCGAGG
DNA 2: CCTCGGAGTATTTGTCCAGT
modifications: strand 1 3'-terminal G20 is a ribonucleotide; rest DNA
B3: binds [4].

From paper PMC10681709, “Molecular insight into the specific enzymatic properties of TREX1 revealing the diverse functions in processing RNA and DNA/RNA hybrids”
